Source: publication PMC5655542

Molecular target: H. polygyrus Alarmin Release Inhibitor (HpARI), recombinant mature 6-His and Myc-tagged protein (Heligmosomoides polygyrus)
Assay: SPR; BIAcore T200; HpARI captured via its 6-His tag on a Ni2+-NTA chip to 400 RU; cytokine injected (mIL-33 6.2-167 nM, hIL-33 0.062-1.67 μM); 25°C; 10 mM NaH2PO4 pH 7.5, 150 mM NaCl, 50 μM EDTA, 0.05% surfactant P20; single kinetic titration, global 1:1 fit

Sequence of H. polygyrus Alarmin Release Inhibitor (HpARI), recombinant mature 6-His and Myc-tagged protein (Heligmosomoides polygyrus) (A0A3P7XL18 63-297): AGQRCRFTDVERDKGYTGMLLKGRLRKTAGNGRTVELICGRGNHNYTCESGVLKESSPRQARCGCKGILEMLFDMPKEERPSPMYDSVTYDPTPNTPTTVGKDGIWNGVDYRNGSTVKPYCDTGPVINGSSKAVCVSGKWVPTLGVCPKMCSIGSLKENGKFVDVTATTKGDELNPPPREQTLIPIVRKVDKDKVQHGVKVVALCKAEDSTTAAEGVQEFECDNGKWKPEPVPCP

B1: recombinant human IL-33, untreated (reduced, active form) (ligand)
chain: MKPKMKYSTNKISTAKWKNTASKALCFKLGKSQQKAKEVCPMYFMKLRSGLMIKKEACYFRRETTKRPSLKTGRKHKRHLVLAACQQQSTVECFAFGISGVQKYTRALHDSSITGISPITEYLASLSTYNDQSITFALEDESYEIYVEDLKKDEKKDKVLLSYYESQHPSNESGDGVDGKMLMVTLSPTKDFWLHANNKEHSVELHKCEKPLPDQAFFVLHNMHSNCVSFECKTDPGVFIGVKDNHLALIKVDSSENLCTENILFKLSET
With B1 the Kd was 260 nM and the stoichiometry N was 1.
